The subject of assay [1] is HA–JNK1. Kind of assay: GST pull-down with WDR62 1018-C–GST constructs. The assay is classed as binding, human. Conditions: HEK-293T; for association with HA–JNK1: anti-HA/anti-pJNK.
Assay [2] concerns HA–JNK2. Kind of assay: GST pull-down with WDR62 1018-C–GST constructs. Conditions: HEK-293T; for association with HA–JNK2: anti-HA/anti-pJNK. The assay is classed as binding, human.
Assay [3] deals with His–JNK2. Nature of the assay: In vitro protein-binding assay. The conditions noted are these: purified proteins, 2 h at 37°C, amylose resin. Details: species or system human.
For assay [4], the system named is His–MKK7β1. Nature of the assay: In vitro protein-binding assay. Details: species or system human. The conditions noted are these: purified proteins, 2 h at 37°C, amylose resin.
In assay [5] the test system is HA–JNK2. Nature of the assay: Co-immunoprecipitation of HA–JNK2 with Myc-tagged WDR62 constructs, HEK-293T. The assay is classed as binding, human. The conditions noted are these: quantified, means±S.D., three independent experiments.
For assay [6], the system named is GST–MKK7β1. Kind of assay: GST pull-down of WDR62 fragments with GST–MKK7β1. Conditions: HEK-293T. The assay is classed as binding, human.
Assay [7] relates to WDR62. Kind of assay: GST pull-down of MKK4 with WDR62 fragments. The assay is classed as binding, human. The conditions noted are these: HEK-293T, compared with MKK7–WDR62.

B1: 1018-C–GST: wild-type WDR62-1018-C fused to GST (protein)
chain: RFATSLPHFPGCAGPTEDELSLPEGPSVPSSSLPQTPEQEKFLRHHFETLTESPCRELFPAALGDVEASEAEDHFFNPRLSISTQFLSSLQKASRFTHTFPPRATQCLVKSPEVKLMDRGGSQPRAGTGYASPDRTHVLAAGKAEETLEAWRPPPPCLTSLASCVPASSVLPTDRNLPTPTSAPTPGLAQGVHAPSTCSYMEATASSRARISRSISLGDSEGPIVATLAQPLRRPSSVGELASLGQELQAITTATTPSLDSEGQEPALRSWGNHEARANLRLTLSSACDGLLQPPVDTQPGVTVPAVSFPAPSPVEESALRLHGSAFRPSLPAPESPGLPAHPSNPQLPEARPGIPGGTASLLEPTSGALGLLQGSPARWSEPWVPVEALPPSPLELSRVGNILHRLQTTFQEALDLYRVLVSSGQVDTGQQQARTELVSTFLWIHSQLEAECLVGTSVAPAQALPSPGPPSPPTLYPLASPDLQALLEHYSELLVQAVRRKARGH
On to B1, for which the “association with HA–JNK1” value in assay [1] was “efficiently precipitated”. Further, the “association with HA–JNK2” value in assay [2] is given as “efficiently precipitated”.

B2: MBP-1018-C: MBP fused to human WDR62 1018-C fragment (protein)
chain: B1 chain
Take B2: the “precipitation of His–JNK2” value in assay [3] was “efficiently precipitated His–JNK2”. For the same molecule, the “precipitation of His–MKK7β1” value in assay [4] is reported as “efficiently precipitated”.

B3: Myc-N-1284: Myc-tagged WDR62 aa 1–1284 (protein)
chain: MAAVGSGGYARNDAGEKLPSVMAGVPARRGQSSPPPAPPICLRRRTRLSTASEETVQNRVSLEKVLGITAQNSSGLTCDPGTGHVAYLAGCVVVILDPKENKQQHIFNTARKSLSALAFSPDGKYIVTGENGHRPAVRIWDVEEKNQVAEMLGHKYGVACVAFSPNMKHIVSMGYQHDMVLNVWDWKKDIVVASNKVSCRVIALSFSEDSSYFVTVGNRHVRFWFLEVSTETKVTSTVPLVGRSGILGELHNNIFCGVACGRGRMAGSTFCVSYSGLLCQFNEKRVLEKWINLKVSLSSCLCVSQELIFCGCTDGIVRIFQAHSLHYLANLPKPHYLGVDVAQGLEPSFLFHRKAEAVYPDTVALTFDPIHQWLSCVYKDHSIYIWDVKDINRVGKVWSELFHSSYVWNVEVYPEFEDQRACLPSGSFLTCSSDNTIRFWNLDSSPDSHWQKNIFSNTLLKVVYVENDIQHLQDMSHFPDRGSENGTPMDVKAGVRVMQVSPDGQHLASGDRSGNLRIHELHFMDELVKVEAHDAEVLCLEYSKPETGLTLLASASRDRLIHVLNVEKNYNLEQTLDDHSSSITAIKFAGNRDIQMISCGADKSIYFRSAQQGSDGLHFVRTHHVAEKTTLYDMDIDITQKYVAVACQDRNVRVYNTVNGKQKKCYKGSQGDEGSLLKVHVDPSGTFLATSCSDKSISVIDFYSGECIAKMFGHSEIITSMKFTYDCHHLITVSGDSCVFIWHLGPEITNCMKQHLLEIDHRQQQQHTNDKKRSGHPRQDTYVSTPSEIHSLSPGEQTEDDLEEECEPEEMLKTPSKDSLDPDPRCLLTNGKLPLWAKRLLGDDDVADGLAFHAKRSYQPHGRWAERAGQEPLKTILDAQDLDCYFTPMKPESLENSILDSLEPQSLASLLSESESPQEAGRGHPSFLPQQKESSEASELILYSLEAEVTVTGTDSQYCRKEVEAGPGDQQGDSYLRVSSDSPKDQSPPEDSGESEADLECSFAAIHSPAPPPDPAPRFATSLPHFPGCAGPTEDELSLPEGPSVPSSSLPQTPEQEKFLRHHFETLTESPCRELFPAALGDVEASEAEDHFFNPRLSISTQFLSSLQKASRFTHTFPPRATQCLVKSPEVKLMDRGGSQPRAGTGYASPDRTHVLAAGKAEETLEAWRPPPPCLTSLASCVPASSVLPTDRNLPTPTSAPTPGLAQGVHAPSTCSYMEATASSRARISRSISLGDSEGPIVATLAQPLRRPSSVGELASLGQELQAITTATTPSLDSEGQEPA
As for B3, in assay [5], the “reduction of precipitated JNK2 as compared with CS2 and CS5 full-length proteins” value was 7 -fold.

B4: Myc-1212-C: Myc-tagged WDR62 aa 1212–1523 (protein)
chain: PSTCSYMEATASSRARISRSISLGDSEGPIVATLAQPLRRPSSVGELASLGQELQAITTATTPSLDSEGQEPALRSWGNHEARANLRLTLSSACDGLLQPPVDTQPGVTVPAVSFPAPSPVEESALRLHGSAFRPSLPAPESPGLPAHPSNPQLPEARPGIPGGTASLLEPTSGALGLLQGSPARWSEPWVPVEALPPSPLELSRVGNILHRLQTTFQEALDLYRVLVSSGQVDTGQQQARTELVSTFLWIHSQLEAECLVGTSVAPAQALPSPGPPSPPTLYPLASPDLQALLEHYSELLVQAVRRKARGH
Turning to B4, in assay [6], the “association with MKK7β1, in words” value is reported as “efficiently associated”.

B5: 1018-CΔD–GST: WDR62-1018-C lacking the D domain fused to GST (protein)
chain: RFATSLPHFPGCAGPTEDELSLPEGPSVPSSSLPQTPEQEKFLRHHFETLTESPCRELFPAALGDVEASEAEDHFFNPRLSISTQFLSSLQKASRFTHTFPPRATQCLVKSPEVKLMDRGGSQPRAGTGYASPDRTHVLAAGKAEETLEAWRPPPPCLTSLASCVPASSVLPTDRNLPTPTSAPTPGLAQGVHAPSTCSYMEATASSRARISRSISLGDSEGPIVATLAQPLRRPSSVGELASLGQELQAITTATTPSLDSEGQEPALRSWGNHEASSACDGLLQPPVDTQPGVTVPAVSFPAPSPVEESALRLHGSAFRPSLPAPESPGLPAHPSNPQLPEARPGIPGGTASLLEPTSGALGLLQGSPARWSEPWVPVEALPPSPLELSRVGNILHRLQTTFQEALDLYRVLVSSGQVDTGQQQARTELVSTFLWIHSQLEAECLVGTSVAPAQALPSPGPPSPPTLYPLASPDLQALLEHYSELLVQAVRRKARGH
Turning to B5, the “association with HA–JNK1” value in assay [1] is reported as “relatively weak interaction”. The pJNK1 in precipitate result in assay [1] (anti-pJNK) is “no pJNK1/2 was detected”. For the same molecule, in assay [2], the “association with HA–JNK2” value is “relatively weak interaction”. Further, the pJNK2 in precipitate entry in assay [2] (anti-pJNK) is on record as “no pJNK1/2 was detected”.

B6: Myc-1018-CΔD (protein)
chain: B5 chain
As to B6, the “association with MKK7β1, in words” value in assay [6] was “efficiently precipitated with GST–MKK7β1”.

B7: Myc-1018-1284: Myc-tagged WDR62 aa 1018–1284 (protein)
chain: RFATSLPHFPGCAGPTEDELSLPEGPSVPSSSLPQTPEQEKFLRHHFETLTESPCRELFPAALGDVEASEAEDHFFNPRLSISTQFLSSLQKASRFTHTFPPRATQCLVKSPEVKLMDRGGSQPRAGTGYASPDRTHVLAAGKAEETLEAWRPPPPCLTSLASCVPASSVLPTDRNLPTPTSAPTPGLAQGVHAPSTCSYMEATASSRARISRSISLGDSEGPIVATLAQPLRRPSSVGELASLGQELQAITTATTPSLDSEGQEPA
On to B7, for which, in assay [6], the “association with MKK7β1, in words” value is listed as “efficiently associated”.

B8: Myc-1232-C: Myc-tagged WDR62 aa 1232–1523 (protein)
chain: ISLGDSEGPIVATLAQPLRRPSSVGELASLGQELQAITTATTPSLDSEGQEPALRSWGNHEARANLRLTLSSACDGLLQPPVDTQPGVTVPAVSFPAPSPVEESALRLHGSAFRPSLPAPESPGLPAHPSNPQLPEARPGIPGGTASLLEPTSGALGLLQGSPARWSEPWVPVEALPPSPLELSRVGNILHRLQTTFQEALDLYRVLVSSGQVDTGQQQARTELVSTFLWIHSQLEAECLVGTSVAPAQALPSPGPPSPPTLYPLASPDLQALLEHYSELLVQAVRRKARGH
Consider B8, for which the “association with MKK7β1, in words” value in assay [6] is “but not Myc-1232-C”.

B9: MKK4: HA-tagged human MKK4 (protein)
chain: MAAPSPSGGGGSGGGSGSGTPGPVGSPAPGHPAVSSMQGKRKALKLNFANPPFKSTARFTLNPNPTGVQNPHIERLRTHSIESSGKLKISPEQHWDFTAEDLKDLGEIGRGAYGSVNKMVHKPSGQIMAVKRIRSTVDEKEQKQLLMDLDVVMRSSDCPYIVQFYGALFREGDCWICMELMSTSFDKFYKYVYSVLDDVIPEEILGKITLATVKALNHLKENLKIIHRDIKPSNILLDRSGNIKLCDFGISGQLVDSIAKTRDAGCRPYMAPERIDPSASRQGYDVRSDVWSLGITLYELATGRFPYPKWNSVFDQLTQVVKGDPPQLSNSEEREFSPSFINFVNLCLTKDESKRPKYKELLKHPFILMYEERAVEVACYVCKILDQMPATPSSPMYVD
As for B9, the “MKK4–WDR62 interaction” value in assay [7] is reported as “weaker than the MKK7–WDR62 interaction”.

For the origin of these results see publication PMC3462610 (Biochemical Journal, 2011).
